Source: US20170073664A1

Legend:
Experiment in all cases: cell_activity
[1] = tested on: eGFP-TALEN-18-right; conditions: pair; clone 6F HEK293; control 324; 95.6% positive in flow
[2] = tested on: AAVS original TALEN right; conditions: pair with left TALEN, HEK293F, 300 ng donor; control 111
[3] = tested on: AAVS-SBI TALEN right (pZT-AAVS1 R1); conditions: pair with left TALEN, 300 ng donor; control 111
[4] = tested on: eGFP-TALEN-18-Left; conditions: pair; clone 6F HEK293; control 324; 95.6% positive in flow
[5] = tested on: AAVS-SBI TALEN left (pZT-AAVS1 L1); conditions: pair with right TALEN, 300 ng donor; control 111
[6] = tested on: AAVS original TALEN left; conditions: pair with right TALEN, HEK293F, 300 ng donor; control 111

CGAGGAGCTGTTCA (double strand) [eGFP TALEN right half-site (TALEN reads complement)]
activity (blasticidin colonies per 10^6 cells) [1]: 1080

TTTTCTGTCACCAATCCT (double strand) [AAVS right TALEN half-site]
activity (blasticidin-resistant colonies) [2]: 1420 | activity (blasticidin-resistant colonies) [3]: 2800

TCCACCGGTCGCCA (double strand) [eGFP TALEN left half-site]
activity (blasticidin colonies per 10^6 cells) [4]: 1080

CCCCTCCACCCCACAGT (double strand) [AAVS left half-site without first T]
activity (blasticidin-resistant colonies) [5]: 2800

TCCCCTCCACCCCACAGT (double strand) [AAVS left TALEN half-site]
activity (blasticidin-resistant colonies) [6]: 1420
